According to US20160250307A1 (IMMATICS BIOTECHNOLOGIES, published 2016):

Assays:
HLA-A*02 [1] = biological target: HLA-A*02 (human); assay: UV-ligand exchange, anti-b2m ELISA; grade: exchange yield >=75%
HLA-A*02 [2] = biological target: HLA-A*02 (human); assay: as above; remark: listed apart in the source
HLA-A*02 [3] = biological target: HLA-A*02 (human); assay: UV-ligand exchange, anti-b2m ELISA; grade: exchange yield >=20%
HLA-A*02 [4] = biological target: HLA-A*02 (human); assay: UV-ligand exchange, anti-b2m ELISA; grade: exchange yield >=50%
HLA-A*02 [5] = biological target: HLA-A*02 (human); assay: UV-ligand exchange, anti-b2m ELISA; grade: exchange yield 50%-75%

## FLFNTENKLLL (also called IDI1-001)
HLA-A*02 [1]
  peptide exchange yield: ≥ 75%
HLA-A*02 [2]
  peptide exchange yield: ≥ 75%

## GLIDTETAMKAV (also called HSD11B1-001)
HLA-A*02 [1]
  peptide exchange yield: ≥ 75%
HLA-A*02 [2]
  peptide exchange yield: ≥ 75%

## RLMSALTQV
HLA-A*02 [3]
  peptide exchange yield: 20 to 50%

## GVMAGDIYSV (also called ADF-012)
HLA-A*02 [1]
  peptide exchange yield: ≥ 75%
HLA-A*02 [2]
  peptide exchange yield: ≥ 75%

## YLITSVELL (also called ACSL4-001)
HLA-A*02 [1]
  peptide exchange yield: ≥ 75%
HLA-A*02 [2]
  peptide exchange yield: ≥ 75%

## KLLEEATISV (also called DYM-001)
HLA-A*02 [4]
  peptide exchange yield: 50 to 75%
HLA-A*02 [5]
  peptide exchange yield: 50 to 75%

## RIISGLVKV
HLA-A*02 [3]
  peptide exchange yield: 20 to 50%

## AMPPPPPQGV
HLA-A*02 [3]
  peptide exchange yield: 20 to 50%

## GLAEELVRA
HLA-A*02 [3]
  peptide exchange yield: 20 to 50%

## ALASVIKEL (also called IFT81-001)
HLA-A*02 [1]
  peptide exchange yield: ≥ 75%
HLA-A*02 [4]
  peptide exchange yield: 50 to 75%

## ALCEENMRGV (also called EEF2-001)
HLA-A*02 [4]
  peptide exchange yield: 50 to 75%
HLA-A*02 [5]
  peptide exchange yield: 50 to 75%

## TLAQQPTAV
HLA-A*02 [3]
  peptide exchange yield: 20 to 50%

## KLQDFSDQL (also called APOB-004)
HLA-A*02 [1]
  peptide exchange yield: ≥ 75%
HLA-A*02 [2]
  peptide exchange yield: ≥ 75%

## KIAGTNAEV
HLA-A*02 [3]
  peptide exchange yield: 20 to 50%

## FLAELAYDL (also called GPC3-001)
HLA-A*02 [1]
  peptide exchange yield: ≥ 75%
HLA-A*02 [2]
  peptide exchange yield: ≥ 75%

## KLAEIVKQV (also called MAPKAPK5-001)
HLA-A*02 [1]
  peptide exchange yield: ≥ 75%
HLA-A*02 [2]
  peptide exchange yield: ≥ 75%

## KLLAATVLLL
HLA-A*02 [3]
  peptide exchange yield: 20 to 50%

## FLDTPIAKV
HLA-A*02 [3]
  peptide exchange yield: 20 to 50%

## RLLAKIICL
HLA-A*02 [3]
  peptide exchange yield: 20 to 50%

## SLLEEFDFHV (also called USO-001)
HLA-A*02 [1]
  peptide exchange yield: ≥ 75%
HLA-A*02 [2]
  peptide exchange yield: ≥ 75%

## VLTEFTREV (also called IPO9-001)
HLA-A*02 [1]
  peptide exchange yield: ≥ 75%
HLA-A*02 [2]
  peptide exchange yield: ≥ 75%

## VMAPFTMTI (also called APOB-003)
HLA-A*02 [1]
  peptide exchange yield: ≥ 75%
HLA-A*02 [2]
  peptide exchange yield: ≥ 75%

## FVLPLLGLHEA
HLA-A*02 [3]
  peptide exchange yield: 20 to 50%

## TLITDGMRSV
HLA-A*02 [3]
  peptide exchange yield: 20 to 50%

## ALVEQGFTV (also called APOB-001)
HLA-A*02 [1]
  peptide exchange yield: ≥ 75%
HLA-A*02 [2]
  peptide exchange yield: ≥ 75%

## YLYNNEEQVGL
HLA-A*02 [3]
  peptide exchange yield: 20 to 50%

## TMAKESSIIGV
HLA-A*02 [3]
  peptide exchange yield: 20 to 50%

## LTDITKGV
HLA-A*02 [3]
  peptide exchange yield: 20 to 50%

## KLSPTVVGL (also called AXIN2-001)
HLA-A*02 [4]
  peptide exchange yield: 50 to 75%
HLA-A*02 [5]
  peptide exchange yield: 50 to 75%

## ALADLTGTVV (also called NCST-001)
HLA-A*02 [1]
  peptide exchange yield: ≥ 75%
HLA-A*02 [2]
  peptide exchange yield: ≥ 75%

## RIPAYFVTV
HLA-A*02 [3]
  peptide exchange yield: 20 to 50%

## GVYDGEEHSV (also called MAGEB2-001)
HLA-A*02 [5]
  peptide exchange yield: 50 to 75%

## ALLKVNQEL (also called SAMM-001)
HLA-A*02 [1]
  peptide exchange yield: ≥ 75%
HLA-A*02 [2]
  peptide exchange yield: ≥ 75%

## VLADFGARV (also called C1QTNF3-001)
HLA-A*02 [5]
  peptide exchange yield: 50 to 75%

## ALVDTLKFV (also called APOB-002)
HLA-A*02 [1]
  peptide exchange yield: ≥ 75%
HLA-A*02 [2]
  peptide exchange yield: ≥ 75%

## KMDPVAYRV (also called QAR-001)
HLA-A*02 [4]
  peptide exchange yield: 50 to 75%
HLA-A*02 [5]
  peptide exchange yield: 50 to 75%

## SLIDQFFGV (also called USP14-001)
HLA-A*02 [1]
  peptide exchange yield: ≥ 75%

## SLLEKELESV (also called DRG2-001)
HLA-A*02 [4]
  peptide exchange yield: 50 to 75%
HLA-A*02 [5]
  peptide exchange yield: 50 to 75%

## AVLGPLGLQEV (also called THT-001)
HLA-A*02 [4]
  peptide exchange yield: 50 to 75%
HLA-A*02 [5]
  peptide exchange yield: 50 to 75%

## LLYGHTVTV (also called SLC35B2-001)
HLA-A*02 [1]
  peptide exchange yield: ≥ 75%
HLA-A*02 [2]
  peptide exchange yield: ≥ 75%

## SLSQELVGV (also called ZNF318-001)
HLA-A*02 [4]
  peptide exchange yield: 50 to 75%
HLA-A*02 [5]
  peptide exchange yield: 50 to 75%

## FLYPEKDEPT
HLA-A*02 [3]
  peptide exchange yield: 20 to 50%

## KLQAGTVFV (also called ALDH1L1-001)
HLA-A*02 [4]
  peptide exchange yield: 50 to 75%
HLA-A*02 [5]
  peptide exchange yield: 50 to 75%

## FLASESLIKQI
HLA-A*02 [3]
  peptide exchange yield: 20 to 50%

## FTIPKLYQL
HLA-A*02 [3]
  peptide exchange yield: 20 to 50%

## RVPPPPQSV
HLA-A*02 [3]
  peptide exchange yield: 20 to 50%

## SLLGGNIRL (also called ACSL3-001)
HLA-A*02 [1]
  peptide exchange yield: ≥ 75%
HLA-A*02 [2]
  peptide exchange yield: ≥ 75%
